Literature values, collected in publication PMC4166121.

Biological target: p38 MAPK (UniProt Q16539)
Sequence (Q16539 2-360): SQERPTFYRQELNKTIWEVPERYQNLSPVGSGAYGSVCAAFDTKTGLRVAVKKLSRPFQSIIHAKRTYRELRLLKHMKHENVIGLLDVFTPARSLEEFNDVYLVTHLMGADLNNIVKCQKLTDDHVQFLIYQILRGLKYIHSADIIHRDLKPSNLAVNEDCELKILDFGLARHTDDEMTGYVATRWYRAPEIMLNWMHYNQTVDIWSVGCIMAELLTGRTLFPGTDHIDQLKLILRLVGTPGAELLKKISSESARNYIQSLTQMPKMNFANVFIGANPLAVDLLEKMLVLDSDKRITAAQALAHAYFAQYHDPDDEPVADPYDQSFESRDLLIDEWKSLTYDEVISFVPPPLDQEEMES

Sequence of eNOS (P29474 2-1203): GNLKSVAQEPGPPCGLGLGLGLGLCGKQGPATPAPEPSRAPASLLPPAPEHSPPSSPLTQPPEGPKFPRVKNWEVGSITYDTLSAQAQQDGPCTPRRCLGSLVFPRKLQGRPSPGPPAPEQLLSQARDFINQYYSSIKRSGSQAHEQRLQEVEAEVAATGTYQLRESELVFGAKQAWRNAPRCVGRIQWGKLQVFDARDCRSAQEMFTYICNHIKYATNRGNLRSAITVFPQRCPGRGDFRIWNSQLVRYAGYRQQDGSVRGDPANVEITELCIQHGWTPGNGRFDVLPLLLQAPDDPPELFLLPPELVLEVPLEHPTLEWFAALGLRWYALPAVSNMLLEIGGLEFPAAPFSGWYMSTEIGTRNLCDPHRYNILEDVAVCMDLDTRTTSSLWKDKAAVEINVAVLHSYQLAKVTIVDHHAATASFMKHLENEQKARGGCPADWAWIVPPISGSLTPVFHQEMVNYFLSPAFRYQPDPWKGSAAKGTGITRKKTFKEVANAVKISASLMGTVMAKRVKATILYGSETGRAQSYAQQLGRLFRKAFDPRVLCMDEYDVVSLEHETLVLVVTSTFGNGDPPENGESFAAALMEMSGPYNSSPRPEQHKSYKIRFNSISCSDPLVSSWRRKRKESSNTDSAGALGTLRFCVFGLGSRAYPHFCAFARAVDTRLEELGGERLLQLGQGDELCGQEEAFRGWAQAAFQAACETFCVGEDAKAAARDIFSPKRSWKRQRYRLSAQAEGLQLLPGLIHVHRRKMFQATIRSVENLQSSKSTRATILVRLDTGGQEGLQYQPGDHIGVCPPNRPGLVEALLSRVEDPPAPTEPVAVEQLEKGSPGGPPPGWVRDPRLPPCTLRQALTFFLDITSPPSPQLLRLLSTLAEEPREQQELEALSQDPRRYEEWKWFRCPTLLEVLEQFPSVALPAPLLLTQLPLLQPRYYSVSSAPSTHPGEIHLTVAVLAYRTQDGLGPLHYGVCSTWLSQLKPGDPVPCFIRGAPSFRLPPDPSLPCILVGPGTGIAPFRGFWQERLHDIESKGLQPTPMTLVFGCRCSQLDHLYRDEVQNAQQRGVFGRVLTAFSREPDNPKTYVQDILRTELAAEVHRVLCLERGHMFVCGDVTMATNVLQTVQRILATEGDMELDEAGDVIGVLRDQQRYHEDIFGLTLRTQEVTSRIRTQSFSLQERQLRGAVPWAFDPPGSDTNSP

Substance: eNOS (from UniProt P29474)
- Kd: 0.08 nM
